The record followed here is publication PMC11575137 (BMC Biology, 2024).

The target of this assay is KRAS^G12D mutant. Briefly: BLI binding kinetics assay, KRAS G12D mutant. The following applies: protein-protein; BLI (Fig. S5). For orientation: BLI is a label-free optical method that tracks binding on a fibre tip over time.

B1: GRB10: potential KRAS-interacting protein, UniProt Q13322 (protein, UniProt Q13322 1-594, looked up)
Growth factor receptor-bound …: MALAGCPDSFLHHPYYQDKVEQTPRSQQDPAGPGLPAQSDRLANHQEDDVDLEALVNDMNASLESLYSACSMQSDTVPLLQNGQHARSQPRASGPPRSIQPQVSPRQRVQRSQPVHILAVRRLQEEDQQFRTSSLPAIPNPFPELCGPGSPPVLTPGSLPPSQAAAKQDVKVFSEDGTSKVVEILADMTARDLCQLLVYKSHCVDDNSWTLVEHHPHLGLERCLEDHELVVQVESTMASESKFLFRKNYAKYEFFKNPMNFFPEQMVTWCQQSNGSQTQLLQNFLNSSSCPEIQGFLHVKELGKKSWKKLYVCLRRSGLYCSTKGTSKEPRHLQLLADLEDSNIFSLIAGRKQYNAPTDHGLCIKPNKVRNETKELRLLCAEDEQTRTCWMTAFRLLKYGMLLYQNYRIPQQRKALLSPFSTPVRSVSENSLVAMDFSGQTGRVIENPAEAQSAALEEGHAWRKRSTRMNILGSQSPLHPSTLSTVIHRTQHWFHGRISREESHRIIKQQGLVDGLFLLRDSQSNPKAFVLTLCHHQKIKNFQILPCEDDGQTFFSLDDGNTKFSDLIQLVDFYQLNKGVLPCKLKHHCIRVAL
With B1, the Kd (as a rule, the concentration at which binding is half-saturated) was 51 µM.
